Bridge positions count the residues as written; N and C are the ends. Square brackets hold non-standard residues; d marks the D form. Primed or numbered codes have the meaning given here. Ends that are not written are not given here. * marks the point of attachment. Biotin = O=C1N[C@H]2[C@H](CS[C@H]2CCCCC(=O)*)N1; Lys(N3) = [N-]=[N+]=NCCCC[C@H](N)C(=O)O; PEG3′ = PEGylated amino acid linker; Biotin′ = not defined here; Pra = C#CC[C@H](N)C(=O)O
Assays:
[1] = biological target: T1, full-length His-tagged IL-17F protein (ab167911, Abcam) (human, UniProt Q96PD4 31-163); test: fluorescence polarization in solution: IL-17F titrated against the 5-FITC-tagged macrocycle
T1 construct: Bought protein, called 'full-length'; also called human IL-17F protein; recombinant human IL-17F protein; not shown: His tag of the bought protein
T1 chain: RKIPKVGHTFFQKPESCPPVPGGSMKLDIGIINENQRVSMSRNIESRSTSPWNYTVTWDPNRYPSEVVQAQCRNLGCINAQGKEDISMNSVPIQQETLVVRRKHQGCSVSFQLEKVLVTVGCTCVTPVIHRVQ

[2] = biological target: T2, Plasmodium falciparum Histidine Rich Protein-2 (Pf.HRP-2) (Plasmodium falciparum); test: method and form of the target not stated
T2 chain: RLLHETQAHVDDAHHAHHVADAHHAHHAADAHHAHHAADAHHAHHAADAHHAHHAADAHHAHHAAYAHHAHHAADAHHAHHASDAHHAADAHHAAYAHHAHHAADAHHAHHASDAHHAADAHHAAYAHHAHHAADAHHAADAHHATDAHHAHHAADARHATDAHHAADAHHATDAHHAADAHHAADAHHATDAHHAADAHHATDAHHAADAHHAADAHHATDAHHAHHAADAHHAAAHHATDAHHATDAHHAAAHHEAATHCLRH

[3] = biological target: T1, full-length His-tagged IL-17F protein …; test: surface-immobilized macrocycle contacted with IL-17F, IL-17A or no protein
[4] = biological target: T3, His6-PEG3-FFQKPESSPPVPGGS (human, not fully specified (N-terminus); printed as His6-PEG3-FFQKPESSPPVPGGS); test: point ELISA with His-tagged epitope peptides scrambled at the N- or C-terminus
T3 construct: Chemically synthesized
T3 peptide: FFQKPESSPPVPGGS

[5] = biological target: T4, His6-PEG3-SQFEKFPSPPVPGGS (not fully specified (N-terminus); printed as His6-PEG3-SQFEKFPSPPVPGGS); test: point ELISA: ligand on NeutrAvidin plate, His-tagged epitope peptide, anti-His-AP detection
T4 construct: Chemically synthesized
T4 peptide: SQFEKFPSPPVPGGS
Procedure: (§1) Assay to determine orientation of macrocycle binding to IL-17F Epitope1. […] The plate was aspirated and then washed with TBS (5×) and Wash Buffer (0.05% (v/v) Tween-20 in PBS, 1×). Chemically synthesized His-tagged IL-17F epitopes were prepared at 2 μM in Wash Buffer and incubated in the designated microwells for 90 min at room temperature. Wash Buffer without epitope was added as a control. Microwells were aspirated and subsequently washed with Wash Buffer (10×). To detect the bound IL-17F epitopes, Alkaline Phosphatase (AP)-conjugated Anti-6X His tag® antibody [HIS-1] (ab49746, Abcam) was prepared at 1:10,000 dilution and added to the microwells for 1 h at room temperature. […] AttoPhos® AP Fluorescent Substrate System (S1000, Promega) was employed to develop the microwells. […] Data are shown after subtraction of the no-epitope background.

[6] = biological target: T5, His6-PEG3-FFQKPESSPVSPGPG (not fully specified (N-terminus); printed as His6-PEG3-FFQKPESSPVSPGPG); test: point ELISA: ligand on NeutrAvidin plate, 2 µM His-tagged epitope peptide, anti-His-AP detection
T5 construct: Chemically synthesized
T5 peptide: FFQKPESSPVSPGPG
Procedure: as §1

[7] = biological target: T1, full-length His-tagged IL-17F protein …; test: point ELISA: ligand on NeutrAvidin plate, His-tagged IL-17F against His-tagged IL-17A as reference
Procedure: Point ELISA (IL-17F vs. IL-17A selectivity assay). […] The plate was aspirated and then washed with TBS (5×) and Wash Buffer (0.05% (v/v) Tween-20 in PBS, 1×). Full-length His-tagged IL-17F (ab167911, Abcam) and IL-17A (ab166882, Abcam) proteins were prepared at 100 and 10 nM in Wash Buffer and incubated in the designated microwells for 90 min at room temperature. Microwells were aspirated and subsequently washed with Wash Buffer (10×). To detect the bound IL-17F and IL-17A proteins, Alkaline Phosphatase (AP)-conjugated Anti-6X His tag® antibody [HIS-1] (ab49746, Abcam) was prepared at 1:10,000 dilution and added to the microwells for 1 h at room temperature. […] AttoPhos® AP Fluorescent Substrate System (S1000, Promega) was employed to develop the microwells.
(§2) For these assays, the full-length His-tagged IL-17F and IL-17A proteins were captured using the macrocyclic peptide ligands immobilized on a NeutrAvidin-coated plate.

[8] = biological target: T1, full-length His-tagged IL-17F protein …; test: sandwich ELISA: biotinylated ligand on NeutrAvidin plate, His-tagged IL-17F titrated, anti-His-AP detection
[9] = biological target: T3, His6-PEG3-FFQKPESSPPVPGGS; test: point ELISA: ligand on NeutrAvidin plate, 2 µM His-tagged epitope peptide, anti-His-AP detection
Procedure: as §1

[10] = biological target: T1, full-length His-tagged IL-17F protein …; test: fluorescence polarization in solution
[11] = biological target: T1, full-length His-tagged IL-17F protein …; test: comparison of affinities for His-tagged IL-17F
[12] = biological target: T1, full-length His-tagged IL-17F protein …; test: point ELISA against recombinant human IL-17F and IL-17A
[13] = biological target: T1, full-length His-tagged IL-17F protein …; test: binding to His-tagged IL-17F human recombinant protein; method not named there (ELISA implied)
[14] = biological target: T1, full-length His-tagged IL-17F protein …; test: comparison of affinities for His-tagged IL-17F; reference the other biligands (PEG1, PEG2, PEG4, PEG5)
[15] = biological target: T1, full-length His-tagged IL-17F protein …; test: point ELISA: ligand on NeutrAvidin plate, 100 nM His-tagged IL-17F against His-tagged IL-17A as reference
Procedure: Point ELISA (IL-17F vs. IL-17A selectivity assay). […] The plate was aspirated and then washed with TBS (5×) and Wash Buffer (0.05% (v/v) Tween-20 in PBS, 1×). Full-length His-tagged IL-17F (ab167911, Abcam) and IL-17A (ab166882, Abcam) proteins were prepared at 100 nM and 10 nM in Wash Buffer and incubated in the designated microwells for 90 min at room temperature. Microwells were aspirated and subsequently washed with Wash Buffer (10×). To detect the bound IL-17F and IL-17A proteins, Alkaline Phosphatase (AP)-conjugated Anti-6X His tag® antibody [HIS-1] (ab49746, Abcam) was prepared at 1:10,000 dilution and added to the microwells for 1 h at room temperature. […] AttoPhos® AP Fluorescent Substrate System (S1000, Promega) was employed to develop the microwells.
as §2

[16] = biological target: T2, Plasmodium falciparum Histidine Rich …; test: comparison of EC50 values
[17] = biological target: T1, full-length His-tagged IL-17F protein …; test: method not named there (same number as the ELISA EC50)

B1: fluorescein 5-isothiocyanate (5-FITC)-tagged LF2 (peptide)
peptide: [Pra]RSYNK[Lys(N3)]
modifications: triazole N-C; numbers in words are those of the source; also: 5-FITC tag, position not given here
notes: Form of LF2 used in fluorescence polarization; also called LF2 (5-FITC-tagged)
Work on B1 yielded a Kd [1] of 28 nM.

Binder GWNVDL (also: cyclic peptide, closure not given here, also called cy(GWNVDL)) [cyclic PCC with variable sequence GWNVDL (SEQ ID NO:30)] has an EC50 [2] of 50 nM.

B2: Cy(RRATS)(SEQ ID NO:9)-PEG3-biotin (peptide)
peptide: [Pra]RRATS[Lys(N3)]-{PEG3′-Biotin′}
modifications: triazole N-C
notes: also called LF1; PEG3-biotin-modified Cy(RRATS)
For B2, the “selectivity for IL-17F (against IL-17A)” value [3] was 10 ratio, the binding result [4] was “binds” and the binding result [5] was “no binding (tested: 2 µM epitope)”. For the same binder, the binding result [6] was “binds”, the “selectivity for IL-17F (against IL-17A)” value [7] was 2 ratio and the EC50 [8] was 66 nM.

B3: Cy(RRAQS)(SEQ ID NO:10)-PEG3-biotin (peptide)
peptide: [Pra]RRAQS[Lys(N3)]-{PEG3′-Biotin′}
modifications: triazole N-C
notes: also called PEG3-biotin-modified Cy(RRAQS)
B3: no binding (tested: 2 µM epitope) [5]; binds [9]; binds [6]. The “selectivity for IL-17F (against IL-17A)” value [7] was 2 ratio and the EC50 [8] was 52 nM.

For YKYYR (also: cyclic, mode of cyclisation not given here, also called cyclic YKYYR) [Cy(YKYYR) (SEQ ID NO:29)], the EC50 [2] was 220 nM.

B4: Biotin-PEG3-Cy(RSYNK)(SEQ ID NO:28)-PEG3-Cy(RRATS) (SEQ ID NO:9) (peptide)
peptide 1: {Biotin-PEG3′}-[Pra]RSYNK
peptide 2: [Pra]RRATS[Lys(N3)]
modifications: not fully specified (C-terminus); also: triazole to a chain's N/C-terminus, triazole to a chain's N/C-terminus
notes: One covalent molecule: the two macrocycles are joined by a single PEGylated amino acid (PEG3); also called Bi-LF; Cy(RSYNK)-PEG3-Cy(RRATS)
With B4 the Kd [10] was 0.252 nM, the “fold improvement in affinity relative to the individual PCC macrocyclic ligands” value [11] was > 100 fold and the “selectivity for IL-17F (against IL-17A)” value [12] was 4 ratio. For the same binder, the Kd [13] was 0.246 nM and the “times stronger than the other biligands” value [14] was ≥ 16 fold.

B5: Biotin-PEG3-Cy(KKGWP) (SEQ ID NO:23) (peptide)
peptide: KKGWP
modifications: not fully specified; cyclised by a triazole between flanking N-terminal Pra (L-propargylglycine) and C-terminal Az4 (L-azidolysine); N-terminal Biotin-PEG3 label
notes: also called PEG3-biotin-modified Cy(KKGWP)
With B5 the “selectivity for IL-17F (against IL-17A)” value [15] was 4 ratio and the EC50 [8] was 24 nM.

B6: cy(YKYYR)(SEQ ID NO:29)-linker-cy(GWNVDL) (SEQ ID NO:30) (peptide)
peptide 1: YKYYR
peptide 2: GWNVDL
modifications: not fully specified
notes: One covalent molecule; also called the resultant biligand
B6 was tested, and the “fold improvement over the better of the two ligand components” value [16] was 100 fold and the EC50 [2] was 0.54 nM.

B7: Biotin-PEG3-Cy(RSYNK) (SEQ ID NO:28) (peptide)
peptide: RSYNK
modifications: not fully specified; cyclised by a triazole between flanking N-terminal Pra (L-propargylglycine) and C-terminal Az4 (L-azidolysine); Biotin-PEG3 label
notes: also called LF2; PEG3-biotin-modified Cy(RSYNK)
B7 was tested, and the Kd [17] was 15 nM, the “selectivity for IL-17F (against IL-17A)” value [15] was 4 ratio and the EC50 [8] was 15 nM.

B8: fluorescein 5-isothiocyanate (5-FITC)-tagged LF1 (peptide)
peptide: [Pra]RRATS[Lys(N3)]
modifications: triazole N-C; numbers in words are those of the source; also: 5-FITC tag, position not given here
notes: Form of LF1 used in fluorescence polarization; also called LF1 (5-FITC-tagged)
B8 showed a Kd [1] of 50 nM.

B9: linked biligand of two Cy(YKYYR) (SEQ ID NO:29) PCCs with about a 1.5 nm long linker (peptide)
peptide: YKYYR
modifications: also: cyclic peptide (Cy), closure not given here, dimer: two macrocycles joined by a linker of about 1.5 nm
notes: also called the resultant linked biligand
B9 gave an EC50 [2] of 20.8 nM.

— patent US20180364253A1 (published 2018)
